Consider 2 molecules from publication PMC9512822, “Redβ177 annealase structure reveals details of oligomerization and λ Red-mediated homologous DNA recombination” (Nature Communications, 2022).

Series [1] concerns the molecule itself. Description: cryo-EM structure; purified Redβ177 incubated in turn with two complementary 27mer oligonucleotides (molar ratio 7.7:1:1) in 20 mM KH2PO4 pH 6.0, 5 mM MgCl2, room temperature, then dialysed overnight at 4 °C; helical reconstruction of the 1-start left-handed helix, 3.3 Å; a 2-start assembly was seen only in 2D classes.
In series [2] the target is T1, Redβ177 (Escherichia coli bacteriophage lambda, UniProt P03698 1-177).
T1 sequence: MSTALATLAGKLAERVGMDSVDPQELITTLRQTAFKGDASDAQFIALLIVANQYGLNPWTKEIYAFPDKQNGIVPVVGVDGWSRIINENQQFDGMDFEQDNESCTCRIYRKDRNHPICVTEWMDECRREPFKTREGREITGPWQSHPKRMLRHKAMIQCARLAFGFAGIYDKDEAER
Description: cryo-EM structure (helical reconstruction, 3.3 Å); 5 mM MgCl2; Redβ177:Oligo 1:Oligo 2 7.7:1:1; 4 bp per monomer; base identity averaged, arbitrary sequence modelled; 20 mM KH2PO4 pH 6.0, 5 mM MgCl2; 30 min at room temperature with each oligo, then dialysis overnight at 4 °C. Particulars: protein: recombinant; tags: C-terminal His6; blunt.

B1: Redβ177-His6 (N-terminal residues 1-177 of the Redβ annealase of bacteriophage λ) (domain or fragment, bacteriophage lambda (phage λ), UniProt P03698 1-177, looked up)
chain: MSTALATLAGKLAERVGMDSVDPQELITTLRQTAFKGDASDAQFIALLIVANQYGLNPWTKEIYAFPDKQNGIVPVVGVDGWSRIINENQQFDGMDFEQDNESCTCRIYRKDRNHPICVTEWMDECRREPFKTREGREITGPWQSHPKRMLRHKAMIQCARLAFGFAGIYDKDEAER
notes: Redβ (Beta) annealase, product of the bet gene of bacteriophage lambda, UniProtKB P03698, N-terminal residues 1-177 (C-terminally truncated); The molecule forms a helical filament of no fixed number of subunits; Residues 3-169 were modelled, except 133-138; also called Redβ177-6xHis; Redβ N-terminal domain; not shown: His6, C-terminal, kept
With B1, the binding result in series [1] was “binds”.

B2: Oligo 1 + Oligo 2 annealing intermediate (27mer) (dsDNA)
DNA 1: TGCAGCAGCTTTACCATCTGCCGCTGG
DNA 2: CCAGCGGCAGATGGTAAAGCTGCTGCA
Take B2: in series [2], the binding result is recorded as “binds”.
